The test has as its target synthetic IAPP, used as monomer and as sonicated preformed fibrils (seeds) (UniProt P10997).

Sequence of synthetic IAPP, used as monomer and as sonicated preformed fibrils (seeds) (from UniProt P10997 34-70) (peptide) (P10997 34-70): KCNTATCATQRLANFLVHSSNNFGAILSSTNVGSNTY

The substance “synthetic IAPP, used as monomer and as sonicated preformed fibrils (seeds) (from UniProt P10997 34-70) (peptide)” yielded a lag phase of ThT fibril formation of 2.5 µM monomeric IAPP after adding IAPP seeds corresponding to 100 nM monomeric peptide (240 min without seeds); PBS pH 7.4, 37°C of 20 min.

For the origin of these results see paper PMC9922763.
